Test results as given in patent US20210101944A1 (WEST CHINA HOSPITAL SICHUAN UNIVERSITY, published 2021).
Numbering of substitutions follows the chain as printed.

Tests used:
[1] = target: T1, death receptor fusion protein DR4-Fc (UniProt O00220 24-239, limits assumed); test: BLI, DR4-Fc on protein A-coated probe; IgBD-TRAIL01 to DR4-Fc
T1 construct: Captured on a protein A-coated BLI probe; also called TRAIL R1; not shown: Fc part

[2] = target: T2, death receptor fusion protein DR5-Fc (UniProt O14763 56-182, limits assumed); test: BLI, DR5-Fc on protein A-coated probe; IgBD-TRAIL01 to DR5-Fc
T2 construct: Captured on a protein A-coated BLI probe; also called TRAIL R2; not shown: Fc part

[3] = target: T2, death receptor fusion protein DR5-Fc; test: Biolayer interferometry, DR5-Fc captured on a protein A probe, IgBD-TRAIL01 at 10-500 nM
Description: (§1) The binding constant Ka and the dissociation constant Kd were determined, and then the affinity KD was calculated according to the formula (KD=Kd/Ka).

[4] = target: T3, Human IgG (human); test: ELISA, coated hIgG, pH 7.4, detection with biotin-labeled anti-TRAIL antibody and HRP-streptavidin
T3 construct: also called hIgG
Description: 1) ELISA Human IgG (hIgG) or mouse IgG (mIgG) was coated in a well plate for ELISA. […] After incubating at 37° C. for 1 h, excess protein was removed.

[5] = target: T1, death receptor fusion protein DR4-Fc; test: BLI, DR4-Fc on protein A-coated probe (method of Example 3)
Description: as §1

[6] = target: T2, death receptor fusion protein DR5-Fc; test: BLI, DR5-Fc on protein A-coated probe (method of Example 3)
Description: as §1

[7] = target: T1, death receptor fusion protein DR4-Fc; test: BLI, DR4-Fc on protein A-coated probe; TRAIL01 to DR4-Fc
Description: as §1

[8] = target: T2, death receptor fusion protein DR5-Fc; test: BLI, DR5-Fc on protein A-coated probe; TRAIL01 to DR5-Fc
Description: as §1

[9] = target: T2, death receptor fusion protein DR5-Fc; test: Biolayer interferometry, DR5-Fc captured on a protein A probe, TRAIL01 at 5-250 nM
Description: as §1

T2 sequence (O14763 56-182 limits assumed): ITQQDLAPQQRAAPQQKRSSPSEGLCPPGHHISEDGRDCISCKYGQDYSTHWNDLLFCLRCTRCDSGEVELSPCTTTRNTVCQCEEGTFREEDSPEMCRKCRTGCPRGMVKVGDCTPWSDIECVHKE
T1 sequence (O00220 24-239 limits assumed): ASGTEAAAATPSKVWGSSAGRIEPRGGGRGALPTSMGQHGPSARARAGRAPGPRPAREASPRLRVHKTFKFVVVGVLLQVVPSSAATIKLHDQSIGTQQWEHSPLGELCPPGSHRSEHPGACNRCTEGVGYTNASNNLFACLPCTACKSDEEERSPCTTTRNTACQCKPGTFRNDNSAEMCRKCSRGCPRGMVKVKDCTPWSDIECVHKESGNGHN

B1: fusion protein IgBD-TRAIL01 (other)
chain: TTYKLVINGKTLKGETTTKAVDAETAAAAFAQYARRNGVDGVWTYDDATKTFTVTEGGGGSGGGGSGGGGSVRERGPQRVAAHITGTRGRSNTLSSPNSKNEKALGRKINSWESSRSGHSFLSNLHLRNGELVIQEKGFYYIYSQTYFRFQEEIKENTKNDKQMVQYIYKYTSYPDPILLMKSARNSCWSKDAEYGLYSIYQGGLFELKKDDRIFVSVTNEHLIDMDHEASFFGAFLVG
notes: also called IgBD-TRAIL1
[1]
  Kd: 4.33 nM
[2]
  Kd: 1.43 nM
[3]
  Kd: 1.5 nM
[4]
  EC50 (read off the curve): ~0.4 nM

B2: fusion protein IgBD-TRAIL02 (other)
chain: B1 chain with A27E, A28K, A31K, R35N, R36D
notes: No tag is stated
[5]
  Kd: 3.96 nM
[6]
  Kd: 1.79 nM

B3: TRAIL01 (ligand)
chain: VRERGPQRVAAHITGTRGRSNTLSSPNSKNEKALGRKINSWESSRSGHSFLSNLHLRNGELVIQEKGFYYIYSQTYFRFQEEIKENTKNDKQMVQYIYKYTSYPDPILLMKSARNSCWSKDAEYGLYSIYQGGLFELKKDDRIFVSVTNEHLIDMDHEASFFGAFLVG
notes: Control protein without IgBD; also called TRAIL1
[7]
  Kd: 4 nM
[8]
  Kd: 1.5 nM
[9]
  Kd: 1.43 nM
